{
  "source": "patent US20220031820",
  "system": "T1, recombinant syndecan-1",
  "T1 sequence (P18827 whole entry, species assumed, looked up)": "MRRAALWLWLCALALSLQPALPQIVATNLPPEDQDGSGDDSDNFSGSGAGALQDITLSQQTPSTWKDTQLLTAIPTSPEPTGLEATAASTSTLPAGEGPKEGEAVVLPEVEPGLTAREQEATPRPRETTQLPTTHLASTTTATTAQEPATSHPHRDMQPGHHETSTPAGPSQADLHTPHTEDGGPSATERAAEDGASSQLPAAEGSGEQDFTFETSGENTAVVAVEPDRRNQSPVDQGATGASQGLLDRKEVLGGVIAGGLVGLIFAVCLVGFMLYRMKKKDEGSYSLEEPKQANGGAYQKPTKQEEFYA",
  "data": [
    {"substance": "recombinant GzmB", "values": [
      {"measurement": "in vitro syndecan-1 cleavage assay (coomassie gel); GzmB 500 nM, syndecan-1 0.7 ug", "value": "syndecan-1 was cleaved by all three granzymes"}
    ]}
  ]
}
